# Experiment: soluble on expression in E. coli; label from the status in PepcDB or PDB records
row,Sequence,soluble on expression in E. coli
1,MHHHHHHSSGVDLGTENLYFQSMAQADIALIGLAVMGQNLILNMNDHGFVVCAFNRTVSKVDDFLANEAKGTKVVGAQSLKEMVSKLKKPRRIILLVKAGQAVDDFIEKLVPLLDTGDIIIDGGNSEYRDTTRRCRDLKAKGILFVGSGVSGGEEGARYGPSLMPGGNKEAWPHIKTIFQGIAAKVGTGEPCCDWVGDEGAGHFVKMVHNGIEYGDMQLICEAYHLMKDVLGMAQDEMAQAFEDWNKTELDSFLIEITANILKFQDTDGKHLLPKIRDSAGQKGTGKWTAISALEYGVPVTLIGEAVFARCLSSLKDERIQASKKLKGPQKFQFDGDKKSFLEDIRKALYASKIISYAQGFMLLRQAATEFGWTLNYGGIALMWRGGCIIRSVFLGKIKDAFDRNPELQNLLLDDFFKSAVENCQDSWRRAVSTGVQAGIPMPCFTTALSFYDGYRHEMLPASLIQAQRDYFGAHTYELLAKPGQFIHTNWTGHGGTVSSSSYNA,soluble
2,NDRHIRHDITRPLPFADNSVDAFQAEDVLEHIAYDRIVPVLNEIHRVLKPGAVFRLSVPDYRCDILDARTEKDATGAPVFDPGGGGTRENPGHAWFPRYETVKTLVEKSNFGTAGEISFLHYYDEHNLPAMREIDYAKGFIQRPPDHDPRVQTPYRPMSLVVDLTKRDVRIFSSFNNSASHA,not soluble
3,GPGSMPPSQTVEYEEDFGHNLMIHREYISKRCRDRVSFELSALSYSNLELRRGQEHLAGIMNRERRGVSVGASGAPDDQVQMQTDVDANSREVLSARYLFNERRLQFCDRFQNFFQSKLENSAASDSNGHEKQHLFSLMEACAVIFGCETEAARETYYRMFLGLDSETLLEEDEALRNRIADAKLVQRVLENNKGRQEVTQSPKLQQQQDQGKPLHAVSSGTSLLNDCEEERFISSIPELSLFEDETEARANGFVEGEDDVKANNGDLTAGSFSSPASSVNLPEEFEEYAPLYKAYITHAVGKGPVASYDISTLGSTGLTAERRRWRTLMEKIVREDYHTMTEVEQMDAIVLNEQLHTVKFFDLKIGDAIRDILQLLQRETGVGSSVNRDTPVGISPNNPERRV,not soluble
4,MRKSRLSQHKQNKLIELFVAGVTARTASKLVNVNKNTATITFIDYAYSFIKQAHIWKCLKAKLKPMKAISAVLEKANVVAVLQGKSQYSGFSNEMQGLYRRCS,not soluble
5,MFCLETTFLIDLLRGRDEALKFYAKIRDSKLYTTSISAWELLRGPKLIGKDKEFEVAVELLESLDVLPFSFNSAKIAVEIEKDLREKGMEVNLIDVLIASVAMEHSLKLVTRDEHFSRIKGLEVERYRPE,soluble
6,MIDLSTEFAGLRLKNPIVAASSGLTRNLKTIKDLEAAGVAAIVLKSLFEEQIEAEMSQMMSPMDYPEAADYINAYVQSNEISKHLDFLREVKREVAIPVIASINCFRSDSWVDFAKQFEEAGADALEINVMRLNTDLFFDANKAEQMYVDIISSLIKAIRIPVVVKLSKSFANIPSLVDKLRAAGAKGVVLFNRSYQPDIDIDKVQMVAGDVFTSAGEISDTIRH,not soluble
7,MGSDKIHHHHHHMNPNIAKISSLLSDPSRSSILLSLMDGRIHPAGELAYLANIKPQTASFHLNKLLEAKLISVEKHGRHRYYRLADSDAANVIEQLLHIAPKAKVKSLKESKEKKDLHFARTCYDHLAGYVGVQMAHSLVEQGMLKKVDLNFEVTSEGALFFSKLGINEEQQRNKRRAFARCCLDWSERQHHIAGALGNALLVRMLEEEWIVRMPKTRAIRITQSGKIAFEKHLNVKI,not soluble
8,MHQVYVDIIVDAIIEQYQTEENFYSAYQIQAADWQAWKEGQFGLDNEVMQKIKNLFTDYEWMLTQKILRQTILFPEKRNLAVSEYKRLKTTIAKKWLQSDLGVVELIPNNKQEQEIAAGYIDLKVTLAYGEWGFDDIITFRLPATIQRQLEGSKVELLDWVNENLMDTYVGE,not soluble
9,MKGITSLGSKWFVEFEKNNVHNVYDRIAEHFTKTRYRIWPGVELFLKQTSPLDTVLDVGCGNGKNLISYRNLFCIGIDRCVPLVKTCKQRQLETAVADILELPFQSEKFDIVLCIAVLHHLCTRERRILAIQELGRVLRPGGSCLLYVWAANENDGKDEVKNTKAREKMRFLDENKQEALIPWVVIDHEKKATQLEKNLKQPSTFTLERYYHLYRQGELEEECLQSNCFHIQHSYYEQSNWCVVLDKKS,soluble
10,MNFLDAVYNAGVVGAGGAGFPTHLKMTKEVGTFIVNGAECEPLLEVDKFLMREKTYELIKGMEIIAGNLKAARVVLGLKKKYKVEIKKLSETIKELDSNVELFLMDNFYPAGDEQIMVKDITGKSIPAGGIPLDVDTVVSNVGTVINVYEAIEEKPVTKKYVSVLGEVNNPVMLEVPIGTSFEECIKRAGGVKIKNYAVIEGGPMMGKIVHRDELAEKAVIKTTGALIILPEDHYVIKRKERPEAHILNESRAACIQCRMCTDMCPRYLIGHKLRPHRVMRAMGMGEQDEEILKEALICCECNVCELFACPMGISPKSTNTYLKGVFREKGVRYDGNKEIPSEHEMRDYRKIPVNRLIARLNLSRYYNNKVADLQELKADKVKIFLSQHIGKPAVPLVKEGDRVIEGQRIAEVGREEFGANIHASINGVVTKVEKSYIEIDGMV,not soluble
11,MAVRIVTDSSSGLPAEIAEELGITVVDLHLVASENQVSTAGLSALELTAAYARQLERGGDAGVVALHLSKELSSTWSAAHTAAAVFDGTVDVVDTQSVGMCVGAAAMAAARLAQGGASLRECADMARDTLRRSETWLYLHRMEEMRRSGRITTATAVVSAALATKPIMQLRGGHVELAVKTRTQSKAFARLVAVISDRCAGEPAFVAIQHHQALEAAHSLQSQLTAALPKGSSFMIMDMDQALSVHCGVGALGISVVFSSYSDTAPIDLSTTS,not soluble
12,MSMPATSTKTTKLATSLIDEYALLGWRAMLTEVNLSPKPGLVDRINCGAHKDMALEDFHRSALAIQGWLPRFIEFGACSAEMAPEAVLHGLRPIGMACEGDMFRATAGVNTHKGSIFSLGLLCAAIGRLLQLNQPVTPTTVCSTAASFCRGLTDRELRTNNSQLTAGQRLYQQLGLTGARGEAEAGYPLVINHALPHYLTLLDQGLDPELALLDTLLLLMAINGDTNVASRGGEGGLRWLQREAQTLLQKGGIRTPADLDYLRQFDRECIERNLSPGGSADLLILTWFLAQI,not soluble
13,MANQHANHSINDFKQFVKKHPKLIKEVRKEQRSWQDVYENWVLFGESDPIWDPYREPEEASEAVPETPQKNDFVSKMVTAVKKMDVNQMNEQINKMSQSISSLQSLLNTFSGSGQKHSQPGSGQHPFSFRKDLEHHHHHH,soluble
14,MPKDKKKDEVTEVEHVDRNISSFSQISHLIDAEIITRLTLSHNKLTSVPPNIADLVSLQSLNLWNNQIEDLPPSISSLPKLRILNVGMNKLSILPRGFGSFPELEILDLTYNNLSERSLPGNFFFMQTLRALYLGDNDFEMLPGDVENLTNLQILVLRENDLLTLPKELGKLTRLRELHIQGNRLAMIPPELGNLELVGSKQVLRLEHNPFIPRIEEQFEANGAAGVWAHIRTDDYRYFFGRQEPSSTPVPPKRNKEKKVSRKGIQQA,not soluble
15,MMKPVLHFSKLYEVKKLLRKSRLYTVCEESRCPNISECFGNKTATFMILGNRCTRRCAFCNVEKGFPKGVDPEEPYRLLEAVKTLGLKYVVITSVTRDDLPDGGASHFAKCIRVLKENIEDIKVEVLIPDFRGNKKALEVVLKEKPVVLNHNVETVPRLYPSVRIGANYKRSLNILKWSKEIDKSVYTKSALILGFGERKEEVIKVMEDLRSVDCDFLVLGQYYQPSLKHHPVVKYYSEEEFKEFEEIGYEMGFKFVVSKPNARSSYKAFESLLSTLEHHHHHH,not soluble
16,MGCLGNSKTEDQRNEEKAQREANKKIEKQLQKDKQVYRATHRLLLLGAGESGKSTIVKQMRILHVNGFNGEGGEEDPQAARSNSDGEKATKVQDIKNNLKEAIETIVAAMSNLVPPVELANPENQFRVDYILSVMNVPDFDFPPEFYEHAKALWEDEGVRACYERSNEYQLIDCAQYFLDKIDVIKQDDYVPSDQDLLRCRVLTSGIFETKFQVDKVNFHMFDVGGQRDERRKWIQCFNDVTAIIFVVASSSYNMVIREDNQTNRLQEALNLFKSIWNNRWLRTISVILFLNKQDLLAEKVLAGKSKIEDYFPEFARYTTPEDATPEPGEDPRVTRAKYFIRDEFLRISTASGDGRHYCYPHFTCAVDTENIRRVFNDCRDIIQRMHLRQYELLGGHHHHHH,soluble
17,MSQVQFSHNPLFCIDIIKTYKPDFTPRVAFILGSGLGALADQIENAVAISYEKLPGFPVSTVHGHAGELVLGHLQGVPVVCMKGRGHFYEGRGMTIMTDAIRTFKLLGCELLFCTNAAGSLRPEVGAGSLVALKDHINTMPGTPMVGLNDDRFGERFFSLANAYDAEYRALLQKVAKEEGFPLTEGVFVSYPGPNFETAAEIRMMQIIGGDVVGMSVVPEVISARHCDLKVVAVSAITNMAEGLSDVKLSHAQTLAAAELSKQNFINLICGFLRKIA,soluble
18,MRQIKVVLIGGGTGLSVMARGLREFPIDITAIVTVADNGGSTGKIRDEMDIPAPGDIRNVIAALSDSESVLSQLFQYRFEENQISGHSLGNLLIAGMTNITNDFGHAIKALSKILNIKGRVIPSTNTSVQLNAVMEDGEIVFGETNIPKKHKKIDRVFLEPNDVQPMEEAIDALREADLIVLGPGSLYTSVISNLCVNGISDALIHSDAPKLYVSNVMTQPGETDGYSVKDHIDAIHRQAGQPFIDYVICSTQTFNAQVLKKYEEKHSKPVEVNKAELEKESINVKTSSNLVEISENHLVRHNTKVLSTMIYDIALELISTIPFVPSDKRKLEHHHHHH,soluble
19,GPGSMSPRTSERILALGVRRLRIRSSSTASSSCNGVVEFSTCGGAGGPSYRPLAAMAMIANIQAVAFTDSRRSVFQNKKTLPSPHGRNITPDAAETKGRALFSDSNSECFPADLDPPSASQLDRILPSLNQLRDEIPSSEYVEELVRRQGVSTDLWSNGEKNNSADDDDE,not soluble
20,MSATINDLASFNKFFTENQHRFIRFAWTYTRDEVVAEDIVMESLMAYWENRDHMTPEINPAAYVLTVVKNKCLNYLRHLQLVNDVSDRVASHSEWELSNRIATLDACEPNALFASEVQDIIDRVISRLSATTARIFLLSRYDNKSHKEIAEIMGMTVKGVEFHISKATKELRVALKDYLVLFPFLCDFLSRN,not soluble
21,MANHARVVRGGEMASAQWLQALAAGVEPEVRMNPVLVKPFGERGAQVVVWGKVDPFLSGLPWKERRPHLEAPVREALEGLLAEYDLLVLEGAGSPVERNLWPDLPNLRVAEWADAKALLVADVDQGGALGALYGTWALLGEHRKRLIGFAFNKFRGDLELLKPAYALLRDWTGLPVLGTLPLLPLALPEEDGFRYRQPAGNGPKVALLRYPHAANLDEFWPLSELAQVVYAHSPEEAEGAWLLILPGSRLPARDLPWLRAFLPLIQRHLEAGKPVLAVCGGAEMLSEALLDEEGVEERGHFPGLGLLPYRVRMAREKTVERRRVRLRGLSGYWGRLEGLEVEGYEIHHGQGLPLFHQEGSLLATWLHGLLENPGVQKALFGREARGLEEGLEALADALERHLDLRALHRALGLTGRAFPASPTEAKAPVGCPDPPPPPGLVLLLGGAKSGKSRFAQRLAGPFATLVATAEARDEEMAEKIRRHQEERPPTWETLEAPLDLVGALKRARHPTVVVDCLTLWVANLMERGLDPLLEARRFLSAVEESGKRVIAVSNEVGMGIVPQNPLARRYRDLLGQVNALLAEAAQEAYLLVAGRALPLGGGKVPAQEAKRPGSHGGEPGPGRSRDPGP,soluble

# Source: the DeepSol protein solubility set
